Reference: patent US20190345446A1 (BROAD INSTITUTE, published 2019)

Columns and labels:
[1] = target: T1, STAT3 (mouse, endogenous) (mouse, UniProt P42227 2-770); assay: co-immunoprecipitation with anti-Fas antibody and Protein G beads from EL4 mouse T cell line, Western blot
T1 construct: Endogenous intracellular protein
Procedure: (§1) For DISC assembly, 1*10⁸ EL4 cells or 5-7*10⁷ MACS sorted primary mouse CD4 cells were stimulated for 15 minutes with either biotinylated anti-Fas antibody (Jo2, 2.5 μg/ml) and streptavidin ([…], Thermo Scientific) or with multimerized recombinant human Fas ligand (aa 139-281) fused at the N-terminus to mouse ACRP30headless (aa 18-111) and a FLAG-tag (MegaFasL, Adipogen) at a final concentration of 100 ng/ml as indicated in the figure legends. MegaFasL was dissolved in H₂O that was used as vehicle. For immunoprecipitation (IP) experiments, cells were then washed twice with ice-cold PBS, lysed in ice-cold IP buffer containing 30 mM Tris HCL, 1% Triton-X100, 150 mM NaCl, 2 mM EDTA, 10% glycerol, 1 mM PMSF, phosphatase inhibitors (HALT, Thermo Scientific) and protease inhibitors (Roche). Immuoprecipitation was performed immediately after lysis using protein G magnetic Dynabeads (Life Technologies) with three consecutive washes with IP buffer. For phosphorylation studies, sorted naïve T cells were stimulated with the cytokines as indicated, then washed with PBS, and either lysed in IP buffer or cytoplasmic and nuclear fractions were extracted using NE-PER reagents (Thermo Scientific) following the manufacturer's protocol. […]

[2] = target: T2, STAT4 (mouse, endogenous) (mouse, UniProt P42228 1-749); assay: as above
T2 construct: Endogenous intracellular protein
T2 sequence (looked up): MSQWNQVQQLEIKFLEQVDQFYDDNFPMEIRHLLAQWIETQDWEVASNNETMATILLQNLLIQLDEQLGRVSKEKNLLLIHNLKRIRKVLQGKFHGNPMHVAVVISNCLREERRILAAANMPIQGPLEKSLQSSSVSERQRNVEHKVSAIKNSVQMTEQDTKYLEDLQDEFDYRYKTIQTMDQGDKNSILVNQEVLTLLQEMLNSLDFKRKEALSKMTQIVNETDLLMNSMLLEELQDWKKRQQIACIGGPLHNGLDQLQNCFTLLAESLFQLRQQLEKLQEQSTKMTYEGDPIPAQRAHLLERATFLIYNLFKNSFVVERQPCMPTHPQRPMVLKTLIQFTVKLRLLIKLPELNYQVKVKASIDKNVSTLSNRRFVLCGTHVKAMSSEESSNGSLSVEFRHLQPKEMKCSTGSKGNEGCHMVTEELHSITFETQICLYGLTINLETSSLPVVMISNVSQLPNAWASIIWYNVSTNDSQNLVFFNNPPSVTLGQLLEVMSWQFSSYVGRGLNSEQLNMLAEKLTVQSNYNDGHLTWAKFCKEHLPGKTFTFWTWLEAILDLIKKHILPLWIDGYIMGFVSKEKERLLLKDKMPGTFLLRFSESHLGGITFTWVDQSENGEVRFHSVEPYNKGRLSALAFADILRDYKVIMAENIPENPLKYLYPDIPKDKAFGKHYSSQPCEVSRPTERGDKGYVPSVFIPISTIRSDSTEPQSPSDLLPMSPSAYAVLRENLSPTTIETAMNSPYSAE
Procedure: as §1

T1 sequence (P42227 2-770 limits assumed): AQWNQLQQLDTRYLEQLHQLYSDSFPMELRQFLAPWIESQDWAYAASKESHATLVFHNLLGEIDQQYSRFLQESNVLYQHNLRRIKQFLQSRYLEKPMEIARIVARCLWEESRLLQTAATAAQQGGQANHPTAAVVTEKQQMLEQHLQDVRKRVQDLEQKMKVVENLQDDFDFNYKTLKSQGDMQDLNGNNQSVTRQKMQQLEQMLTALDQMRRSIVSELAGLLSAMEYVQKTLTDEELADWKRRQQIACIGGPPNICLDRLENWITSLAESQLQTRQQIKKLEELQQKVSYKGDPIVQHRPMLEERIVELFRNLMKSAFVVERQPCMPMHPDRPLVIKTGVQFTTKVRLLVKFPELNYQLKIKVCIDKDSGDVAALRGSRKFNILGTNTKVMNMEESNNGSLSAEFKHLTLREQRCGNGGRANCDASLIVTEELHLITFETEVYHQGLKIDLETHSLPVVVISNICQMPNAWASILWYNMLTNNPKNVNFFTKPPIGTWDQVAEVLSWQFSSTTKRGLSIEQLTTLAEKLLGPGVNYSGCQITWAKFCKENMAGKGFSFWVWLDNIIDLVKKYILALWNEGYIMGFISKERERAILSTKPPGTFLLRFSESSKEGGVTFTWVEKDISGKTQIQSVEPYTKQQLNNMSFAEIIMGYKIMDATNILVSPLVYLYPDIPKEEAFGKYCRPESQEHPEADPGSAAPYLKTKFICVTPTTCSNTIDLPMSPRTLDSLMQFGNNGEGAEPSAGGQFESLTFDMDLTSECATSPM

B1: Fas (mouse death receptor Fas, endogenous in EL4 cells and primary mouse CD4+ T cells) (receptor, UniProt P25446 22-327, looked up)
chain: QGTNSISESLKLRRRVRETDKNCSEGLYQGGPFCCQPCQPGKKKVEDCKMNGGTPTCAPCTEGKEYMDKNHYADKCRRCTLCDEEHGLEVETNCTLTQNTKCKCKPDFYCDSPGCEHCVRCASCEHGTLEPCTATSNTNCRKQSPRNRLWLLTILVLLIPLVFIYRKYRKRKCWKRRQDDPESRTSSRETIPMNASNLSLSKYIPRIAEDMTIQEAKKFARENNIKEGKIDEIMHDSIQDTAEQKVQLLLCWYQSHGKSDAYQDLIKGLKKAECRRTLDKFQDMVQKDLGKSTPDTGNENEGQCLE
notes: whole, on cells; Endogenous protein; also called Fas receptor; CD95
binding result [1]: no binding
binding result [2]: no binding
